Publication PMC9352680, “A comprehensive thermodynamic model for RNA binding by the Saccharomyces cerevisiae Pumilio protein PUF4”
Substitutions are numbered along the chain they refer to. Names and notes keep the numbering of the source.

T1: PUF4 RNA-binding domain (Saccharomyces cerevisiae, UniProt P25339 537-888)
T1 sequence: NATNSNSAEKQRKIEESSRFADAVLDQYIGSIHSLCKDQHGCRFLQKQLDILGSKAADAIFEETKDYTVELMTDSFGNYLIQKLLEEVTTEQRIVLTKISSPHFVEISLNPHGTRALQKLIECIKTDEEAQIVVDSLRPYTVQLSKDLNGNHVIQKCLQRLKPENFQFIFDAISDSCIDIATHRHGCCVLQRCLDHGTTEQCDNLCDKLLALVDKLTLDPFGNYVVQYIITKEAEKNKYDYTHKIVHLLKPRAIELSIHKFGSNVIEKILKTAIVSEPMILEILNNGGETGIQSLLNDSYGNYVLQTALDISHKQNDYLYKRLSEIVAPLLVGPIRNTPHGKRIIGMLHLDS

B1: Id_ii_S4_P4E.2_K4.1_C4.2_[T-1G]_H4.1_A4.1_F4.1_T4.2 (ssRNA)
RNA: UUUGACAACUGAUCGUUCUUUCUCGUGUAUAUUAGUUUCUUUCUCGAUCAGUUGUCUUU
B2: Id_ii_S4_P4E.2_K4.1_C4.2_[T-1C]_H4.1_A4.1_F4.1_T4.2_[G10T]_[T11G] (ssRNA)
RNA: B1 RNA with G25C, G35U, U36G
B3: Id_ii_S4_P4E.2_K4.1_C4.2_[T-1C]_H4.1_A4.1_F4.1_T4.2_[G10T]_[T11C] (ssRNA)
RNA: B1 RNA with G25C, G35U, U36C
B4: Id_ii_S4_P4E.2_K4.1_C4.2_[T-1C]_H4.1_A4.1_F4.1_T4.2_[G10A]_[T11A] (ssRNA)
RNA: B1 RNA with G25C, G35A, U36A
B5: Id_ii_S4_P4E.2_K4.1_C4.2_[T-1A]_H4.1_A4.1_F4.1_T4.2_[G10A] (ssRNA)
RNA: B1 RNA with G25A, G35A
B6: Id_ii_S4_P4E.2_K4.1_C4.2_[T-1A]_H4.1_A4.1_F4.1_T4.2_[T11G] (ssRNA)
RNA: B1 RNA with G25A, U36G
B7: Id_ii_S4_P4E.2_K4.1_C4.2_H4.1_A4.1_F4.1_T4.2_[G10C] (ssRNA)
RNA: B1 RNA with G25U, G35C
B8: Id_ii_S4_P4E.2_K4.1_C4.2_H4.1_A4.1_F4.1_T4.2_[G10T] (ssRNA)
RNA: B1 RNA with G25U, G35U
B9: Id_ii_S4_P4E.2_K4.1_C4.2_H4.1_A4.1_F4.1_T4.2_[G10A]_[T11A] (ssRNA)
RNA: B1 RNA with G25U, G35A, U36A
B10: Id_ii_S4_P4E.2_K4.1_C4.2_H4.1_A4.1_F4.1_T4.2_[G10A] (ssRNA)
RNA: B1 RNA with G25U, G35A
B11: Id_ii_S4_P4E.3_K4.2_C4.2_[C-2G]_[T-1G]_H4.2_A4.1_F4.1_T4.2_[G10A] (ssRNA)
RNA: B1 RNA with C24G, G27A, G35A
B12: Id_ii_S4_P4E.3_K4.2_C4.2_[C-2G]_[T-1C]_H4.2_A4.1_F4.1_T4.2_[G10T]_[T11C] (ssRNA)
RNA: B1 RNA with C24G, G25C, G27A, G35U, U36C
B13: Id_ii_S4_P4E.3_K4.2_C4.2_[C-2G]_H4.2_A4.1_F4.1_T4.2_[G10C] (ssRNA)
RNA: B1 RNA with C24G, G25U, G27A, G35C
B14: Id_ii_S4_P4E.3_K4.2_C4.2_[C-2G]_H4.2_A4.1_F4.1_T4.2_[G10T] (ssRNA)
RNA: B1 RNA with C24G, G25U, G27A, G35U
B15: Id_ii_S4_P4E.3_K4.2_C4.2_[C-2G]_H4.2_A4.1_F4.1_T4.2_[G10A] (ssRNA)
RNA: B1 RNA with C24G, G25U, G27A, G35A
B16: Id_ii_S4_P4E.3_K4.2_C4.2_[C-2T]_[T-1G]_H4.2_A4.1_F4.1_T4.2_[G10T]_[T11C] (ssRNA)
RNA: B1 RNA with C24U, G27A, G35U, U36C
B17: Id_ii_S4_P4E.3_K4.2_C4.2_[C-2T]_[T-1G]_H4.2_A4.1_F4.1_T4.2_[G10T] (ssRNA)
RNA: B1 RNA with C24U, G27A, G35U
B18: Id_ii_S4_P4E.3_K4.2_C4.2_[C-2T]_[T-1G]_H4.2_A4.1_F4.1_T4.2_[G10A]_[T11C] (ssRNA)
RNA: B1 RNA with C24U, G27A, G35A, U36C
B19: Id_ii_S4_P4E.3_K4.2_C4.2_[C-2T]_[T-1C]_H4.2_A4.1_F4.1_T4.2_[G10C]_[T11A] (ssRNA)
RNA: B1 RNA with C24U, G25C, G27A, G35C, U36A
B20: Id_ii_S4_P4E.3_K4.2_C4.2_[C-2T]_[T-1C]_H4.2_A4.1_F4.1_T4.2_[G10T]_[T11C] (ssRNA)
RNA: B1 RNA with C24U, G25C, G27A, G35U, U36C
B21: Id_ii_S4_P4E.3_K4.2_C4.2_[C-2T]_[T-1C]_H4.2_A4.1_F4.1_T4.2_[G10T]_[T11A] (ssRNA)
RNA: B1 RNA with C24U, G25C, G27A, G35U, U36A
B22: Id_ii_S4_P4E.3_K4.2_C4.2_[C-2T]_[T-1C]_H4.2_A4.1_F4.1_T4.2_[G10A] (ssRNA)
RNA: B1 RNA with C24U, G25C, G27A, G35A
B23: Id_ii_S4_P4E.3_K4.2_C4.2_[C-2T]_[T-1A]_H4.2_A4.1_F4.1_T4.2_[G10C]_[T11G] (ssRNA)
RNA: B1 RNA with C24U, G25A, G27A, G35C, U36G
B24: Id_ii_S4_P4E.3_K4.2_C4.2_[C-2T]_[T-1A]_H4.2_A4.1_F4.1_T4.2_[G10A]_[T11A] (ssRNA)
RNA: B1 RNA with C24U, G25A, G27A, G35A, U36A
B25: Id_ii_S4_P4E.3_K4.2_C4.2_[C-2T]_H4.2_A4.1_F4.1_T4.2_[G10C]_[T11G] (ssRNA)
RNA: B1 RNA with C24U, G25U, G27A, G35C, U36G
B26: Id_ii_S4_P4E.3_K4.2_C4.2_[C-2T]_H4.2_A4.1_F4.1_T4.2_[G10C]_[T11C] (ssRNA)
RNA: B1 RNA with C24U, G25U, G27A, G35C, U36C
B27: Id_ii_S4_P4E.3_K4.2_C4.2_[C-2T]_H4.2_A4.1_F4.1_T4.2_[G10T]_[T11G] (ssRNA)
RNA: B1 RNA with C24U, G25U, G27A, G35U, U36G
B28: Id_ii_S4_P4E.3_K4.2_C4.2_[C-2T]_H4.2_A4.1_F4.1_T4.2_[G10T]_[T11A] (ssRNA)
RNA: B1 RNA with C24U, G25U, G27A, G35U, U36A
B29: Id_ii_S4_P4E.3_K4.2_C4.2_[C-2A]_[T-1C]_H4.2_A4.1_F4.1_T4.2_[G10T]_[T11C] (ssRNA)
RNA: B1 RNA with C24A, G25C, G27A, G35U, U36C
B30: Id_ii_S4_P4E.3_K4.2_C4.2_[C-2A]_[T-1C]_H4.2_A4.1_F4.1_T4.2_[G10T]_[T11A] (ssRNA)
RNA: B1 RNA with C24A, G25C, G27A, G35U, U36A
B31: Id_ii_S4_P4E.3_K4.2_C4.2_[C-2A]_[T-1A]_H4.2_A4.1_F4.1_T4.2_[G10C]_[T11G] (ssRNA)
RNA: B1 RNA with C24A, G25A, G27A, G35C, U36G
B32: Id_ii_S4_P4E.3_K4.2_C4.2_[C-2A]_[T-1A]_H4.2_A4.1_F4.1_T4.2_[G10C]_[T11C] (ssRNA)
RNA: B1 RNA with C24A, G25A, G27A, G35C, U36C
B33: Id_ii_S4_P4E.3_K4.2_C4.2_[C-2A]_[T-1A]_H4.2_A4.1_F4.1_T4.2_[G10T]_[T11C] (ssRNA)
RNA: B1 RNA with C24A, G25A, G27A, G35U, U36C
B34: Id_ii_S4_P4E.3_K4.2_C4.2_[C-2A]_H4.2_A4.1_F4.1_T4.2_[G10C]_[T11A] (ssRNA)
RNA: B1 RNA with C24A, G25U, G27A, G35C, U36A
B35: Id_ii_S4_P4E.3_K4.2_C4.2_[T-1G]_H4.2_A4.1_F4.1_T4.2_[G10T]_[T11C] (ssRNA)
RNA: B1 RNA with G27A, G35U, U36C
B36: Id_ii_S4_P4E.3_K4.2_C4.2_[T-1G]_H4.2_A4.1_F4.1_T4.2_[G10A] (ssRNA)
RNA: B1 RNA with G27A, G35A
B37: Id_ii_S4_P4E.3_K4.2_C4.2_[T-1G]_H4.2_A4.1_F4.1_T4.2 (ssRNA)
RNA: B1 RNA with G27A
B38: Id_ii_S4_P4E.3_K4.2_C4.2_[T-1C]_H4.2_A4.1_F4.1_T4.2_[G10C]_[T11G] (ssRNA)
RNA: B1 RNA with G25C, G27A, G35C, U36G
B39: Id_ii_S4_P4E.3_K4.2_C4.2_[T-1C]_H4.2_A4.1_F4.1_T4.2_[G10A] (ssRNA)
RNA: B1 RNA with G25C, G27A, G35A
B40: Id_ii_S4_P4E.3_K4.2_C4.2_[T-1A]_H4.2_A4.1_F4.1_T4.2_[G10C]_[T11A] (ssRNA)
RNA: B1 RNA with G25A, G27A, G35C, U36A

Molecular target: T1, PUF4 RNA-binding domain
Test: Mg; RNA-MaP; 20 mM Na-HEPES pH 7.4, 30 mM KOAc, 0.75 mM MgCl2, 0.1% Tween-20, 5% glycerol, 0.1 mg/mL BSA, 2 mM DTT; 25 C; 0.0125-409.6 nM protein
Details: tags: N-His6-TEV cleaved; C-SNAP kept, Cy3B-labelled; label: tethered on chip by stalled RNA polymerase

Binder	Kd [nM]
B1	0.364
B2	0.173
B3	0.317
B4	0.435
B5	0.453
B6	1.11
B7	0.434
B8	0.116
B9	0.422
UCUCUUUAUAUAAUUAUCUCUU (ssRNA) [Ib_S1_P5E.1_K5.1_C5.1_H5.1_[G2A]_A5.1_[T6A]_F5.1_T5.1]	1010
B10	0.324
B11	125
B12	19.6
B13	38.1
B14	10.6
B15	62
B16	3.99
B17	1.83
B18	3.87
B19	12.6
UCUCUUUCUAUUUUUAUCUCUU (ssRNA) [Ib_S1_P5E.1_K5.1_C5.1_H5.1_[G2C]_A5.1_[A7T]_F5.1_T5.1]	> 2300
B20	5.07
B21	12

Binder	Kd [nM]
B22	10.2
B23	28.4
B24	42
B25	10.1
B26	9.36
B27	8.62
B28	25.9
B29	6.68
UCUCUUUGUAUAAUUAUCUCUU (ssRNA) [Ia_S1_P5E.1_K5.1_C5.1_H5.1_A5.1_[T6A]_F5.1_T5.1]	5.23
UCUCUUUUUAUUCUUAUCUCUU (ssRNA) [Ib_S1_P5E.1_K5.1_C5.1_H5.1_[G2T]_A5.1_[A7C]_F5.1_T5.1]	> 2300
B30	24.6
B31	189
B32	47.7
B33	39.7
B34	12.2
B35	13.1
B36	12.4
B37	8.91
B38	9.21
B39	4.86
UCUCUUUUUAUUUUUAUCUCUU (ssRNA) [Ib_S1_P5E.1_K5.1_C5.1_H5.1_[G2T]_A5.1_[A7T]_F5.1_T5.1]	> 2300
B40	23
